The text below walks through data of publication PMC13598245.

In one experiment the target is 14-3-3η (endogenous) (UniProt Q04917). The experiment can be described thus: GFP-Trap affinity purification, mass spectrometry. The conditions noted are these: sites S90.
Experiment [1] has as its target 14-3-3η (purified, recombinant) (UniProt Q04917). The experiment can be described thus: SEC; complex formed in vitro: equimolar MAST1^D p-S90 and 14-3-3η, 30 min at room temperature, then analytical SEC (Superdex 200 Increase 3.2/300, 50 mM HEPES pH 7.4, 150 mM NaCl, 1 mM TCEP, 4 °C; 50 μL of 30 μM); Coomassie SDS-PAGE of fractions with gel densitometry. On the technique in general: In gel filtration, larger molecules generally elute earlier.

Experiment [2] has the same target. The experiment can be described thus: cross-linking + other: mass photometry; complex stabilised by glutaraldehyde cross-linking, then mass photometry (25 to 50 nM, 50 mM HEPES pH 7.4, 150 mM NaCl, 1 mM TCEP).
Experiment [3] concerns the target GST-tagged 14-3-3η (coexpressed with MAST1^DK) (UniProt Q04917). The experiment can be described thus: SEC; complex coexpressed in Sf9, affinity-purified by the GST tag of 14-3-3η, then analytical SEC (Superdex 200 Increase 3.2/300, 50 mM HEPES pH 7.4, 150 mM NaCl, 1 mM TCEP, 4 °C); Coomassie SDS-PAGE of fractions with gel densitometry.
The target is the same in experiment [4]. As to the kind of experiment: cross-linking + other: mass photometry; complex stabilised by glutaraldehyde cross-linking, then mass photometry (25 to 50 nM, 50 mM HEPES pH 7.4, 150 mM NaCl, 1 mM TCEP).
The target of experiment [5] is 14-3-3η (purified recombinant) (UniProt P68510). The experiment can be described thus: fluorescence anisotropy, FITC peptide. The conditions noted are these: reference: unphosphorylated peptide …. (In fluorescence polarisation assays a small probe gives low polarisation when free and higher when bound to something large.)
In experiment [6] the target is MAST1^DK ΔS90 ΔS161 (Mus musculus). As to the kind of experiment: FP.
Chain of MAST1^DK ΔS90 ΔS161 (Mus musculus) (Q9R1L5 whole entry S90del/S161del): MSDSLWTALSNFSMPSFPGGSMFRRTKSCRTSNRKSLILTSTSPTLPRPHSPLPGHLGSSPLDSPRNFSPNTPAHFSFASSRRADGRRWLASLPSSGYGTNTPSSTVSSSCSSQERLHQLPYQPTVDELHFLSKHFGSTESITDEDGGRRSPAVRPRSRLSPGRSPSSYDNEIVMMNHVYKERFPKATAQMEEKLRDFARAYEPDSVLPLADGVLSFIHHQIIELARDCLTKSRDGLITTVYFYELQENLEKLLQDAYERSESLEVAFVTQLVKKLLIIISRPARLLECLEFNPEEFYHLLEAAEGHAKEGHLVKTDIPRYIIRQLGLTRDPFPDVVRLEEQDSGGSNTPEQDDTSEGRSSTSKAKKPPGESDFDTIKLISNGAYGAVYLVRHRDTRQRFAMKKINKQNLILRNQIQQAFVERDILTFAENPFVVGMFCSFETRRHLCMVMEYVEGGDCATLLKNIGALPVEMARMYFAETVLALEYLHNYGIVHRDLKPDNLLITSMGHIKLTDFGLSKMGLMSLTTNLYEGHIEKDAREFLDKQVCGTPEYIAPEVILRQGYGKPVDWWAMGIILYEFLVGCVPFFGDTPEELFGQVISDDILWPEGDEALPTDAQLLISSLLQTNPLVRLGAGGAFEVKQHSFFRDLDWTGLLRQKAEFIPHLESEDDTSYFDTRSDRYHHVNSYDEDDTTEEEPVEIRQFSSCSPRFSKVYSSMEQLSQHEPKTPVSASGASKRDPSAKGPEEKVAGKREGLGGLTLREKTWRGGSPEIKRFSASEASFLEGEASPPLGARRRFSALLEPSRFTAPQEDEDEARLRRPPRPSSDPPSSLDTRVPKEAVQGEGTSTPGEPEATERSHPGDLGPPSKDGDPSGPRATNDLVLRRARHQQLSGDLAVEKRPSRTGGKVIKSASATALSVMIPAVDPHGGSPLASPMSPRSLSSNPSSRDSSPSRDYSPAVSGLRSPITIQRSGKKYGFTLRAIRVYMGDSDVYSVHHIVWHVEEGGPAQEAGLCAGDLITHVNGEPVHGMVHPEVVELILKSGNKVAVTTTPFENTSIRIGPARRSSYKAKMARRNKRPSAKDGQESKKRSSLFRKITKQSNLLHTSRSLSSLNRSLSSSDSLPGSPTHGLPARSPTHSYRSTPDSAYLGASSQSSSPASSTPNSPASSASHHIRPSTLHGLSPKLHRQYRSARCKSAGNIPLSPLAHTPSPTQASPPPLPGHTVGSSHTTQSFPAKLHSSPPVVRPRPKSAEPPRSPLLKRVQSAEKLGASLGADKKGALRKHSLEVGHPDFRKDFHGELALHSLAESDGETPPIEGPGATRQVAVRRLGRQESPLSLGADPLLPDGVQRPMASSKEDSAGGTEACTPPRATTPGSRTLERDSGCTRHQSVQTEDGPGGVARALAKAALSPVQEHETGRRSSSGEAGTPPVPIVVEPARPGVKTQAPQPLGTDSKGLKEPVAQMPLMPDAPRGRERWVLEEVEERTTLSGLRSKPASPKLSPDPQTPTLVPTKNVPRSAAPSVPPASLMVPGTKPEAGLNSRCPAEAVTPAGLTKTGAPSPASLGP

Chain of 14-3-3η (purified, recombinant) (Q04917 whole entry): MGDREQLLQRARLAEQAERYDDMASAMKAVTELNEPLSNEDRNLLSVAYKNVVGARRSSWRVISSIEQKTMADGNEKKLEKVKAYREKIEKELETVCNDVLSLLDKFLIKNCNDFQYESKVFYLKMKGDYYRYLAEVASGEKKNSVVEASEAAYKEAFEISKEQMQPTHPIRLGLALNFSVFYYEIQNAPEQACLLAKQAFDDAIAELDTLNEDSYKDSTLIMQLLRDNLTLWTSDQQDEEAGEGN
Chain of GST-tagged 14-3-3η (coexpressed with MAST1^DK) (Q04917 whole entry): as above

In the case of “MAST1 MAST1DKP (from UniProt Q9R1L5) S90A S161A”, in the experiment with 14-3-3η (endogenous) (reference: S161A single mutant (S90 intact)), the “binding against the reference” value is given as “weaker”.

For “MAST1^D p-S90 (from UniProt Q9R1L5 1-1570) (domain or fragment)”, the stoichiometry N (MAST1:14-3-3η) in experiment [1] and in experiment [2] was 0.5 each time.

For “MAST1^DK (copurified with 14-3-3η) (from UniProt Q9R1L5 1-1570) (domain or fragment)”, the stoichiometry N (MAST1:14-3-3η) in experiment [3] and in experiment [4] was 0.5 in each case.

For “MAST1 156-168 (from UniProt Q9R1L5) p-S161 peptide”, the “binding against the reference” value in experiment [5] (sites S161) is given as “gained”.

For “MAST1 MAST1DKP (from UniProt Q9R1L5) S90A”, the “binding against the reference” value with 14-3-3η (endogenous) (reference: wild type) is “weaker”.

“MAST1 85-97 (from UniProt Q9R1L5) p-S90 peptide”: in experiment [5] (sites S90), the “binding against the reference” value was “gained”.

The Kd is a measure of binding affinity in units of concentration. A lower Kd goes with a tighter complex. In experiment [6], MAST1^153-166 WT came in with a Kd of 1170 µM.
